Columns and labels:
L. monocytogenes = assay: Translocation of L. monocytogenes through polarized Caco-2 monolayers on Transwell filter-inserts; type: cell-based, Listeria monocytogenes; conditions: LAP 1 or 2 μg/mL, MOI 50
Method: Caco-2 cells were grown as monolayers on Transwell inserts with 3.0 μm pores (Corning-Costar) for up to 14-21 days. TEER was measured to monitor the monolayer integrity (Millicells Voltmeter, Millipore). A TEER value of at least 200 Ω/cm^2 (±10) was used as the basal value to monitor the monolayer integrity. Bacterial cells were washed three times in PBS and resuspended in DMEM-FBS (10%) at a MOI of ˜50 and were added to the apical side of the Transwell system, and after 2 h incubation period at 37° C. in 5% CO2, the liquid was collected from the basal well, and then translocated bacteria were enumerated by plating (Burkholder and Bhunia, 2010). For analysis of FD4 flux, non-metabolizable 4 kDa FITC-labeled dextran (FD4; 5 mg/ml, Sigma-Aldrich) was added with bacteria (MOI, ˜50) resuspended in DMEM-FBS (10%) and added to the apical side. After 2 h incubation at 37° C. in 5% CO2, the liquid was collected from the basal well and fluorescence was measured (Em: 485 nm; Ex: 520 nm; Spectramax, Molecular Devices). For pharmacological inhibition treatments, PDTC (100 μM for 30 min pre-treatment; R&D Systems), Bay-11-7085 (10 μM for 30 min pre-treatment; Sigma-Aldrich), ML-9 (20 μM for 30 min pre-treatment; Sigma-Aldrich), PIK (150 μM, 30 min-pre-treatment and kept during 2-h infection) (Zolotarevsky et al., 2002), and Cytochalasin D (1 μg/mL for 1 h; Sigma-Aldrich) were used separately.
For re-association of externally added LAP to the lap^− mutant, bacteria were harvested from 1 ml of overnight grown culture, and the pellet was washed three times in PBS before the addition of 1 or 2 μg/mL of purified LAP. The mixture was incubated for 30 min at 30° C. with continuous shaking and then pelleted, washed five times in the PBS, resuspended in DMEM, and used in the aforementioned translocation assay.

NF-κB(p65) = assay: Immunoblot of NF-κB activation in Caco-2 cytoplasmic and nuclear extracts; type: cell-based, human
Method: To extract the proteins from Caco-2 cells, cells were seeded in 6-well plates for 14-21 days. Following treatment, the cells were washed, scraped from the bottom of 6-well plates, suspended in PBS, and pelleted by centrifugation. Total protein from Caco-2 cells was extracted using the M-PER Extraction Kit (Thermo Fisher Scientific). Detergent-insoluble (membrane) and detergent-soluble (cytosolic) proteins were isolated using a Mem-Per Eukaryotic Protein Extraction Kit (Thermo Fisher Scientific) while the cytosolic and nuclear proteins were extracted using NE-PER Extraction Reagent (Thermo Fisher Scientific). To extract proteins from ileal epithelial cells, the epithelial cell fraction from ileal tissues were isolated as described above and the detergent-insoluble and the detergent-soluble proteins were isolated using a Mem-Per Eukaryotic Protein Extraction Kit.
To extract total protein from intact bacterial cells, sample solvent buffer and sonication (3 cycles of […]) were used. To isolate the cell wall-associated proteins bacterial pellets were resuspended in 0.5 ml protein extraction buffer (0.5% SDS, 10 mM Tris at pH 6.9), and incubated at 37° C. for 30 min with agitation. The samples were centrifuged (14,000×g, 10 min, 4° C.), and the supernatants (containing cell wall-associated proteins) were retained. Halt proteases and phosphatase inhibitors (Thermo Fisher Scientific) were used during all of the protein extraction procedures. The protein concentrations were determined by BCA assay (Thermo Fisher Scientific), and separated on SDS-PAGE gels (10-12.5% polyacrylamide) and electro-transferred to polyvinylidene difluoride (PVDF) membrane (Millipore). The membranes were then blocked in 5% nonfat dry milk (NFDM) in 0.1 M Tris-buffered saline, pH 7.5 (TBS) containing 0.1% Tween 20 (TBST) for at least 1 h. All of the primary antibodies were diluted in 5% bovine serum albumin (BSA) or 5% NFDM in TBST and incubated overnight. Secondary antibodies (1:2000 in 5% NFDM in TBST) incubated for 1 h at 37° C., and a chemiluminescence method was performed using LumiGLO reagent (Cell Signaling). The membranes were exposed to X-ray films or visualized using the Chemi-Doc XRS system (Bio-Rad). To immunoprobe the same membrane with another antibody, the originally bound antibodies from the membranes were removed by incubating the membranes in Restore Western Blot Stripping Buffer (Thermo Fisher Scientific) according to the manufacturer's protocol. To compare the reaction intensities, the average band densities were determined using Quantity One software (Bio-Rad). Densitometry reports represent the mean±SEM after normalization to the loading control and is presented as % change of protein with the average for untreated cells (control) set at 100%. Immunoblots and densitometric reports are representative of 2-3 independent experiments.

Hsp60 / IKK-β = biological target: T1, Hsp60 / IKK-β (Homo sapiens, UniProt P10809); assay: Co-immunoprecipitation of Hsp60 and IKKβ from Caco-2 cell lysates; type: cell-based; conditions: LAP 1 μg/ml, 30 min
T1 construct: endogenous in cells; host or cells: Caco-2 (human colon carcinoma, ATCC HTB37)
Method: Caco-2 cells were treated with or without purified LAP (1 μg/mL) for 30 min, rinsed with cold PBS, and lysed in Nondiet P-40 (NP-40) lysis buffer (20 mM Tris HCl, pH 8,137 mM NaCl, 1% NP-40, 2 mM EDTA). The cell lysates were pre-cleared with 10 μl protein G agarose beads (MicroProtein Technologies) for 1 h and the lysates were incubated with 2 μg of anti-IKKβ, 2 μg of anti-Hsp60, rabbit serum or normal mouse serum overnight at 4° C. The lysates were further mixed with 20 μL protein G agarose beads for 3 h at 4° C. The beads were washed five times with 1 ml NP-40 lysis buffer. The protein precipitates were analyzed by immunoblotting, and the complexes were visualized by chemiluminescence assay.

[1] = Caco-2 cells, LAP 1 μg/ml, 30 min (FIG. 5D)
[2] = LAP 1000 ng/mL or TNF-α 10 ng/mL
[3] = shRNA vector control Caco-2 cells, LAP 1 μg/mL (FIG. 5B)

T1 sequence (P10809 27-573): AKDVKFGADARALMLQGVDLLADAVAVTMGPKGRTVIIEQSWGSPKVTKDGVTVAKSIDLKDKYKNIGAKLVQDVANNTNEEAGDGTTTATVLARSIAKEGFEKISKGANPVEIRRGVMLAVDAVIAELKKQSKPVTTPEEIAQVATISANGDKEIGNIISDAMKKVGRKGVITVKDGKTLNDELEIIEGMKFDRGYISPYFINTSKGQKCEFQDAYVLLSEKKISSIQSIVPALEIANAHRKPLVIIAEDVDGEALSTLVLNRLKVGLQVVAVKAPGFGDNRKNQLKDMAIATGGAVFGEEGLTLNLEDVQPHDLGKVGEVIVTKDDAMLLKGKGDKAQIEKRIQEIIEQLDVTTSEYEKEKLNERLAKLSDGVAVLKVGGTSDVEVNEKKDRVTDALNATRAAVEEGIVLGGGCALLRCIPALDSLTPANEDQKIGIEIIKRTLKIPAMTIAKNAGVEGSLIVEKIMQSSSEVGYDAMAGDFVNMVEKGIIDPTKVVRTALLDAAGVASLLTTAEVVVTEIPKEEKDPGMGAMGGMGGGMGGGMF

B1: LAP: Listeria adhesion protein, alcohol acetaldehyde dehydrogenase of Listeria monocytogenes, 866 aa, 94 kDa; recombinant, histidine-tagged form SEQ ID NO: 10 (protein)
chain: MAIKENAAQEVLEVQKVIDRLADNGQKALKAFESYNQEQVDNIVHAMALAGLDQHMPLAKLAVEETGRGLYEDKCIKNIFATEYIWNNIKNNKTVGVINEDVQTGVIEIAEPVGVVAGVTPVTNPTSTTLFKAIIAIKTRNPIIFAFHPSAQRCSSAAAKVVYDAAIAAGAPEHCIQWVEKPSLEATKQLMNHDKVALVLATGGAGMVKSAYSTGKPALGVGPGNVPAYIDKTAKIKRSVNDIILSKSFDQGMICASEQAVIVDKEVAKEVKAEMEANKCYFVKGAEFKKLESYVINPEKGTLNPDVVGKSPAWIANQAGFKVPEDTKILVAEIKGVGDKYPLSHEKLSPVLAFIEAANQAEAFDRCEEMLVYGGLGHSAVIHSTDKEVQKAFGIRMKACRIIVNAPSAQGGIGDIYNGFIPSLTLGCGSYGKNSVSQNVSATNLLNVKRIADRRNNMQWFKLPPKIFFEKYSTQYLQKMEGVERVFIVTDPGMGSFKYVDVVIEHLKKRGNDVAYQVFADVEPDPSDVTVYKGAELMKDFKPDTIIALGGGSAMDAAKGMWLFYEHPEASFFGLKQKFLDIRKRTFKYPKLGGKAKFVAIPTTSGTGSEVTPFAVITDKENNIKYPLADYELTPDVAIVDAQYVTTVPAHITADTGMDVLTHAIESYVSVMASDYTRGLSIRAIELVFENLRESVLTGDPDAREKMHNASALAGMAFANAFLGINHSLAHKIGPEFHIPHGRANAILMPHVIRYNALKPKKHALFPRYESFRADEDYARISRIIGFPAATTEEGVKSLVDEIIKLGKDVGIDMSLKGQNVAKKDLDAVVDTLADRAFMDQCTTANPKQPLVSELKEIYLEAYKGV
modifications: Listeria monocytogenes
translocation of the lap- strain after pre-incubation with exogenous purified LAP (L. monocytogenes): rescued the translocation defect | increase of IKK-β protein expression (NF-κB(p65); [1]): 53±2% | increase of p65 protein expression (NF-κB(p65); [1]): 63±5% | protein expression levels of IKK-β and p65 (NF-κB(p65); Hsp60 knocked-down (hsp60::shRNA) Caco-2 cells, LAP 1 μg/mL): basal protein expression levels | increase of IKKα in the cytosol relative to untreated cells (NF-κB(p65); LAP 1 μg/mL, 30 min): 267±7% | increase of P-p65 in the nucleus relative to untreated cells (NF-κB(p65); LAP 1 μg/mL, 30 min): 120±23% | increase of p65 in the nucleus relative to untreated cells (NF-κB(p65); LAP 1 μg/mL, 30 min): 218±32% | time of appearance of cytoplasmic phospho-IκBα (Ser32) (NF-κB(p65); [2]): 15 min | time of increase in nuclear p65 and P-p65 (NF-κB(p65); [2]): 30 min | time by which most IκBα was degraded (NF-κB(p65); LAP 1000 ng/mL, 0-120 min): ≤ 45 min | time of rapid degradation of IκBα (NF-κB(p65); LAP 1000 ng/mL, 0-120 min): ≤ 15 min | increase of IKK-β protein expression (NF-κB(p65); [3]): 52±8% | increase of p65 protein expression (NF-κB(p65); [3]): 54±8% | interaction of Hsp60 with IKK-β (Hsp60 / IKK-β): Hsp60 co-precipitation
